Measured values as given in patent US5767235.
Where two headings read alike, the source gives them in different places.

Legend:
[1] = target: human-thrombin (product of Sigma) (human) (UniProt P00734)
[2] = target: human-thrombin (product of Sigma) (human) (UniProt P00734); experiment: chromogenic thrombin inhibition assay, potency column of Table 3 (hirudin HV-1 = 1)

Substance	50% Inhibition Concentration (clotting assay) [1] [ng/mL]	Potency [1]	Potency [2]
peptide (O) Suc-Phe-Glu-Pro-Ile-Pro-Glu-Tyr-Tyr-(L)Asu(OMe)OMe	35300	0.19	–
peptide (B) Gly-Asp-Phe-Glu-Glu-Ile-Pro-Tyr-Tyr-Tyr-Leu-Gln	13800	0.48	–
peptide (V) Suc-Phe-Glu-Pro-Ile-Pro-Glu-Tyr-Tyr-Leu-(L)Asu(OMe)OMe	30400	0.22	–
peptide (Y) Suc-Phe-Glu-Pro-Ile-Pro-Glu-Tyr-Tyr-Leu-NHPO(OH)2	153000	0.04	–
peptide (K) Suc-Phe-Glu-Pro-Ile-Pro-Glu-Tyr-Tyr-NH(CH2)2COOH	30200	0.21	–
peptide (A) Gly-Asp-Phe-Glu-Glu-Ile-Pro-Glu-Tyr-Tyr-Leu-Gln	14700	0.45	–
peptide (S) Suc-Phe-Glu-Pro-Ile-Pro-Glu-Tyr-Tyr-Leu-Tau-NH2	99600	0.07	–
peptide (R) Suc-Phe-Glu-Pro-Ile-Pro-Glu-Tyr-Tyr-Leu-NHEt	36100	0.18	–
peptide (U) Suc-Phe-Glu-Pro-Ile-Pro-Glu-Tyr-Tyr-Leu-(D)Asu(OMe)OMe	47500	0.14	–
peptide (P) Suc-Phe-Glu-Pro-Ile-Pro-Glu-Tyr-Tyr-Leu-ol	104000	0.06	–
peptide (W) Suc-Phe-Glu-Pro-Ile-Pro-Glu-Tyr-Tyr-Leu-(D)Asu(NH2)NH2	35000	0.19	–
peptide (C) Suc-Gly-Asp-Phe-Glu-Pro-Ile-Pro-Glu-Tyr-Tyr-Leu-Gln-OH	3750	1.76	–
peptide (L) Suc-Phe-Glu-Pro-Ile-Pro-Glu-Tyr-Tyr-NH(CH2)4COOH	15600	0.42	–
peptide (J) Suc-Phe-Glu-Pro-Ile-Pro-Glu-Tyr-Tyr-NH2	98400	0.07	–
hirudin HV-1	–	95	1
peptide (N) Suc-Phe-Glu-Pro-Ile-Pro-Glu-Tyr-Tyr-NH(CH2)3OH	103000	0.06	–
peptide (I) Suc-Phe-Glu-Pro-Ile-Pro-Glu-Tyr-Tyr-OH	20000	0.83	–
